Assay results published in paper PMC5880276.

Biological target: HpiC1
Assay: crystal structure

stoichiometry N: 2
Substance: HpiC1 (enzyme)
